# Measurements as given in the supplement of paper PMC9112550, “Optimization of the antimicrobial peptide Bac7 by deep mutational scanning” (BMC Biology, 2022).
# Test system: Escherichia coli TOP10
# Experiment: shrunken log2 fold change of peptide-encoding DNA abundance (4.5 h post-induction vs induction); higher = less antimicrobial activity (less host growth inhibition)
# Conditions: time post-induction: 4.5 h; library: site-saturation at positions 5, 18, 19, 20
# 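Note: peptides expressed intracellularly from a pBAD plasmid library in pooled LB shake-flask culture, induced with 0.3% L-arabinose, DNA abundance read by NGS, three biological replicates, DESeq2 with apeglm shrinkage.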
row,Sequence,shrunken log2 fold change
1,RRIRARPPRLPRPRPRPGSYPRP,0.14
2,RRIRCRPPRLPRPRPRPLDPPRP,-0.122
3,RRIRFRPPRLPRPRPRPSRRPRP,-0.0576
4,RRIRQRPPRLPRPRPRPWIAPRP,-0.161
5,RRIRKRPPRLPRPRPRPIQMPRP,-0.107
6,RRIRSRPPRLPRPRPRPFTDPRP,-0.04
7,RRIRRRPPRLPRPRPRPQTKPRP,0.161
8,RRIRLRPPRLPRPRPRPGEPPRP,-0.0262
9,RRIRRRPPRLPRPRPRPPVCPRP,0.592
10,RRIRPRPPRLPRPRPRPTIAPRP,-0.0457
11,RRIRIRPPRLPRPRPRPNTNPRP,-0.905
12,RRIRDRPPRLPRPRPRPAIMPRP,0.373
13,RRIRARPPRLPRPRPRPRDVPRP,0.261
14,RRIRFRPPRLPRPRPRPQTEPRP,-0.00927
15,RRIRYRPPRLPRPRPRPDIVPRP,-0.295
16,RRIRMRPPRLPRPRPRPIATPRP,-0.0165
17,RRIRDRPPRLPRPRPRPNTHPRP,-0.292
18,RRIRCRPPRLPRPRPRPEEIPRP,-0.0231
19,RRIRDRPPRLPRPRPRPNWMPRP,-0.0161
20,RRIRLRPPRLPRPRPRPHITPRP,-0.824
21,RRIRTRPPRLPRPRPRPHRDPRP,0.129
22,RRIRARPPRLPRPRPRPQEVPRP,-0.0933
23,RRIRARPPRLPRPRPRPVEAPRP,0.365
24,RRIRSRPPRLPRPRPRPSYQPRP,-0.434
25,RRIRWRPPRLPRPRPRPVRPPRP,0.305
26,RRIRNRPPRLPRPRPRPARNPRP,-0.0209
27,RRIRKRPPRLPRPRPRPELTPRP,2.29

row,Sequence,shrunken log2 fold change
1,RRIRHRPPRLPRPRPRPISIPRP,0.0201
2,RRIRIRPPRLPRPRPRPKHSPRP,-0.447
3,RRIRIRPPRLPRPRPRPVEIPRP,-0.0212
4,RRIRSRPPRLPRPRPRPQVTPRP,-0.196
5,RRIRRRPPRLPRPRPRPWQWPRP,0.549
6,RRIRERPPRLPRPRPRPWGYPRP,-0.279
7,RRIRTRPPRLPRPRPRPNFYPRP,-0.186
8,RRIRSRPPRLPRPRPRPHDWPRP,-0.323
9,RRIRSRPPRLPRPRPRPCVIPRP,-0.172
10,RRIRMRPPRLPRPRPRPCNIPRP,0.0653
11,RRIRWRPPRLPRPRPRPTAHPRP,0.306
12,RRIRPRPPRLPRPRPRPPSYPRP,-0.147
13,RRIRWRPPRLPRPRPRPMTVPRP,-0.0472
14,RRIRSRPPRLPRPRPRPMWNPRP,-0.204
15,RRIRNRPPRLPRPRPRPQASPRP,-0.187
16,RRIRNRPPRLPRPRPRPGARPRP,0.582
17,RRIRRRPPRLPRPRPRPDMFPRP,0.0219
18,RRIRNRPPRLPRPRPRPVLFPRP,-0.326
19,RRIRVRPPRLPRPRPRPPTAPRP,0.43
20,RRIRQRPPRLPRPRPRPKLWPRP,-0.0821
21,RRIRWRPPRLPRPRPRPVELPRP,-0.00876
22,RRIRKRPPRLPRPRPRPYHWPRP,-0.164
23,RRIRGRPPRLPRPRPRPMRNPRP,1.09
24,RRIRYRPPRLPRPRPRPLKGPRP,-0.00142
25,RRIRARPPRLPRPRPRPSLSPRP,-0.224
26,RRIRERPPRLPRPRPRPDLCPRP,-0.00931
27,RRIRCRPPRLPRPRPRPKFWPRP,0.449

row,Sequence,shrunken log2 fold change
1,RRIRSRPPRLPRPRPRPLESPRP,0.14
2,RRIRKRPPRLPRPRPRPFCRPRP,0.558
3,RRIRGRPPRLPRPRPRPRNSPRP,0.114
4,RRIRWRPPRLPRPRPRPNDYPRP,-1.02
5,RRIRCRPPRLPRPRPRPWYKPRP,-1.01
6,RRIRDRPPRLPRPRPRPPCFPRP,0.35
7,RRIRRRPPRLPRPRPRPCWGPRP,0.0286
8,RRIRTRPPRLPRPRPRPDRNPRP,-0.09
9,RRIRFRPPRLPRPRPRPGRNPRP,-0.173
10,RRIRIRPPRLPRPRPRPWNMPRP,0.0777
11,RRIRRRPPRLPRPRPRPMLVPRP,0.196
12,RRIRGRPPRLPRPRPRPCPLPRP,-0.0214
13,RRIRKRPPRLPRPRPRPMETPRP,-0.0146
14,RRIRGRPPRLPRPRPRPFLWPRP,0.996
15,RRIRARPPRLPRPRPRPFETPRP,0.0585
16,RRIRVRPPRLPRPRPRPRLYPRP,0.13
17,RRIRDRPPRLPRPRPRPRLPPRP,0.4
18,RRIRCRPPRLPRPRPRPWTDPRP,-0.055
19,RRIRQRPPRLPRPRPRPEVYPRP,-0.0137
20,RRIRSRPPRLPRPRPRPHQSPRP,-0.198
21,RRIRLRPPRLPRPRPRPKNRPRP,0.177
22,RRIRARPPRLPRPRPRPAKTPRP,0.179
23,RRIRNRPPRLPRPRPRPNFWPRP,0.0138
24,RRIRTRPPRLPRPRPRPHETPRP,-0.00261
25,RRIRERPPRLPRPRPRPVFWPRP,0.39
26,RRIRQRPPRLPRPRPRPGWSPRP,0.119
27,RRIRVRPPRLPRPRPRPMQCPRP,0.0658

row,Sequence,shrunken log2 fold change
1,RRIRHRPPRLPRPRPRPIWVPRP,0.0163
2,RRIRRRPPRLPRPRPRPYSCPRP,-0.0958
3,RRIRPRPPRLPRPRPRPEKMPRP,0.742
4,RRIRLRPPRLPRPRPRPTREPRP,0.794
5,RRIRQRPPRLPRPRPRPIRMPRP,-0.291
6,RRIRIRPPRLPRPRPRPVLMPRP,-0.229
7,RRIRARPPRLPRPRPRPFASPRP,0.0388
8,RRIRWRPPRLPRPRPRPRWNPRP,-0.0693
9,RRIRYRPPRLPRPRPRPACDPRP,-0.00452
10,RRIRKRPPRLPRPRPRPFYDPRP,0.0223
11,RRIRERPPRLPRPRPRPGELPRP,-0.26
12,RRIRTRPPRLPRPRPRPGVRPRP,0.272
13,RRIRYRPPRLPRPRPRPWNEPRP,-0.0429
14,RRIRCRPPRLPRPRPRPMTEPRP,-0.123
15,RRIRRRPPRLPRPRPRPSNTPRP,-0.172
16,RRIRPRPPRLPRPRPRPHRCPRP,-0.299
17,RRIRWRPPRLPRPRPRPCTQPRP,-0.177
18,RRIRQRPPRLPRPRPRPHHAPRP,-0.00332
19,RRIRGRPPRLPRPRPRPFYQPRP,0.0158
20,RRIRCRPPRLPRPRPRPYLKPRP,-1.1
21,RRIRVRPPRLPRPRPRPMKCPRP,-0.00104
22,RRIRQRPPRLPRPRPRPLSLPRP,-0.0321
23,RRIRIRPPRLPRPRPRPWMWPRP,0.0832
24,RRIRTRPPRLPRPRPRPASWPRP,0.733
